Legend:
[1] = biological target: SgcE10, chymotrypsin digested (crystallised form) (Streptomyces globisporus); assay: crystal structure
[2] = biological target: SgcE10, thioesterase (TE) of the 9-membered enediyne C-1027 biosynthetic machinery (Streptomyces globisporus); assay: SEC

Row | stoichiometry N [1] | stoichiometry N [2] | Substance
1 | 4 |  | SgcE10, chymotrypsin digested (crystallised form) (enzyme)
2 |  | 4 | SgcE10, thioesterase (TE) of the 9-membered enediyne C-1027 biosynthetic machinery (enzyme)
